From paper PMC12865133, “Macrocyclic Molecular Glues for the 14‐3‐3/ChREBP Interaction: Affinity and Cooperativity in an Inverse Relationship” (Angewandte Chemie (International Ed. in English), 2025)

Key:
Assay in all cases: fluorescence polarisation; two-dimensional fluorescence anisotropy; 14-3-3β titrated to FITC-labeled F1, F2, F3, F4 or pepD (10 nM) with varying concentrations of ChREBP peptide; fitted to a thermodynamic cooperativity model with KD II fixed at 1.5 µM; n = 2
Details in all cases: both partners purified
macrocycle F1 = biological target: T1, macrocycle F1 (not fully specified; fluorescein isothiocyanate (FITC) on the side chain of the first lysine; β-alanine after it; phosphoserine; triazole from azido phenylalanine (replacing Nph(+1)) cyclised to the …)
T1 chain: SFSXFKXK

macrocycle F4 = biological target: T2, macrocycle F4 (not fully specified; fluorescein isothiocyanate (FITC) on the side chain of the first lysine; β-alanine after it; phosphoserine; triazole from azido phenylalanine (replacing Nph(+1)) cyclised to the …)
T2 chain: SFSXFKXK

macrocycle F3 = biological target: T3, macrocycle F3 (not fully specified; fluorescein isothiocyanate (FITC) on the side chain of the first lysine; β-alanine after it; phosphoserine; triazole from azido phenylalanine (replacing Nph(+1)) cyclised to the …)
T3 chain: SFSXFKXK

FITC-labeled pepD = FITC-labeled pepD (FITC label (position not given); phosphoserine (pSer); 4-nitrophenylalanine Nph(+1) and Nph(+4), counting from pSer)

cooperativity factor α with ChREBP peptide (macrocycle F1): 339 ± 35 | cooperativity factor α with ChREBP peptide (macrocycle F4): 42 ± 1 | cooperativity factor α with ChREBP peptide (macrocycle F3): 12 ± 1 | cooperativity factor α with ChREBP peptide (FITC-labeled pepD): 38 ± 2
B1: 14-3-3β (natural protein, UniProt P31946 1-246, looked up)
chain: MTMDKSELVQKAKLAEQAERYDDMAAAMKAVTEQGHELSNEERNLLSVAYKNVVGARRSSWRVISSIEQKTERNEKKQQMGKEYREKIEAELQDICNDVLELLDKYLIPNATQPESKVFYLKMKGDYFRYLSEVASGDNKQTTVSNSQQAYQEAFEISKKEMQPTHPIRLGLALNFSVFYYEILNSPEKACSLAKTAFDEAIAELDTLNEESYKDSTLIMQLLRDNLTLWTSENQGDEGDAGEGEN
notes: 14-3-3 protein, beta isoform; also called 14-3-3 protein
